The target of assay [1] is T1, native mouse MET on living mouse cells (mouse, UniProt P16056 25-1379). The experiment in a line: cell-based or functional assay.
The target in assay [2] is T2, native human MET on living human cells (human, UniProt P08581 25-1390). The experiment in a line: cell-based or functional assay.
The target of assay [3] is T1, native mouse MET on living mouse cells. The experiment in a line: cell-based or functional assay. The source holds these as a separate data set.
Assay [4] concerns the target T2, native human MET on living human cells. The experiment in a line: cell-based or functional assay. This is another data set of the same source.
For assay [5], the target named is T3, human MET-Fc chimeric protein (R&D Systems) (human, UniProt P08581 25-932).
T3 construct: extracellular domain; bought (R&D Systems); also called hMET; not shown: Fc portion of human IgG1
The experiment in a line: competition ELISA, hMET-Fc in solid phase, competitor 0.3 nM biotinylated hHGF. As to the method: (§1) To investigate along this line, we tested the competition between mAbs and HGF by ELISA. Recombinant human and mouse HGF (R&D Systems) were biotinylated at the N-terminus using NHS-LC-biotin (Thermo Scientific). MET-Fc protein, either human or mouse (R&D Systems), was immobilized in solid phase and then exposed to 0.3 nM biotinylated HGF, either human or mouse, in the presence of increasing concentrations of antibodies (0-120 nM).
(§2) A MET-Fc chimeric protein (either human or mouse) was immobilized in solid phase and exposed to a fixed concentration of biotinylated HGF (either human or mouse), in the presence of increasing concentrations of antibodies. […] Antibody-HGF competition is expressed as IC₅₀ (the concentration that achieves 50% competition) and IMAX (the maximum % competition reached at saturation).

Assay [6] deals with T1, native mouse MET on living mouse cells. The experiment in a line: flow cytometry, MLP29 cells. The protocol:
(§3) We also analysed whether chimeric anti-MET antibodies bound to native human and mouse MET in living cells. […] Antibody binding to cells was analysed by flow cytometry using phycoerythrin-conjugated anti-human IgG1 antibodies (eBioscience) and a CyAn ADP analyser (Beckman Coulter). As a positive control for human MET binding, we used a commercial mouse anti-human MET antibody (R&D Systems) and phycoerythrin-conjugated anti-mouse IgG1 antibodies (eBioscience). As a positive control for mouse MET binding we used a commercial goat anti-mouse MET antibody (R&D Systems) and phycoerythrin-conjugated anti-goat IgG1 antibodies (eBioscience). […] Consistent with the data obtained in ELISA, maximal binding (EMAX) varied depending on antibody, but was similar in human and mouse cells.
(A flow cytometer gives signals particle by particle.)

In assay [7] the target is T2, native human MET on living human cells. The experiment in a line: flow cytometry, A549 cells. As to the method:
as §3

Assay [8] addresses T4, mouse MET-Fc chimeric protein (R&D Systems) (mouse, UniProt P16056 25-929, limits assumed).
T4 construct: bought (R&D Systems); also called mMET; not shown: Fc
The experiment in a line: competition ELISA, mMET-Fc in solid phase, competitor 0.3 nM biotinylated mHGF. The protocol:
as §1, §2
In general terms: ELISA stands for enzyme-linked immunosorbent assay.

For assay [9], the target named is T5, human MET extracellular domain (ECD) (human, UniProt P08581 25-932).
T5 construct: range 1-932; recombinant ECD; also called hMET; human MET ECD
The experiment in a line: ELISA, periplasmic Fab on MET ECD. As to the method: (§4) Fab-expressing phages from the libraries described above were produced according to standard phage display protocols. For selection, phages were first adsorbed to immobilized recombinant human MET ECD, washed, and then eluted using trypsin. After two cycles of selection with human MET ECD, two other cycles were performed in the same fashion using mouse MET ECD. In parallel, we also selected phages alternating a human MET ECD cycle with a mouse MET ECD cycle, for a total of four cycles. Phages selected by the two approaches were pooled together and then used to infect TG1 E. coli. Individual colonies were isolated and secretion of Fabs was induced using IPTG (Fermentas). The Fab-containing periplasmic fraction of bacteria was collected and tested for its ability to bind human and mouse MET ECD by Surface Plasmon Resonance (SPR). Human or mouse MET ECD was immobilized on a CM-5 chip using amine coupling in sodium acetate buffer (GE Healthcare). The Fab-containing periplasmic extracts were loaded into a BIACORE 3000 apparatus (GE Healthcare) with a flow rate of 30 μl/min. The Fab off-rates (koff) were measured over a two minute period. Binding of Fabs to human and mouse MET was further characterized by ELISA using MET ECD in solid phase and periplasmic crude extract in solution.
(§5) TABLE 7 Fabs binding to both human MET (hMET) and mouse MET (mMET). Fabs are grouped in families based on their VH CDR3 sequence. Binding of Fabs to human and mouse MET ECD was determined by Surface Plasmon Resonance (SPR) and by ELISA. SPR values represent the koff (s⁻¹). ELISA values represent the Optical Density (OD) at 450 nm (AU, arbitrary units). Both SPR and ELISA were performed using crude periplasmic extracts. Fab concentration in the extract was not determined. Values are the mean of three independent measurements.

The target in assay [10] is T6, mouse MET extracellular domain (ECD) (mouse, UniProt P16056 25-931).
T6 construct: range 1-931; recombinant ECD; also called mMET; mouse MET ECD
The experiment in a line: ELISA, periplasmic Fab on MET ECD. The protocol:
as §4, §5

Where only a bound is given, the exact number is not on record here.

T2 sequence (P08581 25-1390): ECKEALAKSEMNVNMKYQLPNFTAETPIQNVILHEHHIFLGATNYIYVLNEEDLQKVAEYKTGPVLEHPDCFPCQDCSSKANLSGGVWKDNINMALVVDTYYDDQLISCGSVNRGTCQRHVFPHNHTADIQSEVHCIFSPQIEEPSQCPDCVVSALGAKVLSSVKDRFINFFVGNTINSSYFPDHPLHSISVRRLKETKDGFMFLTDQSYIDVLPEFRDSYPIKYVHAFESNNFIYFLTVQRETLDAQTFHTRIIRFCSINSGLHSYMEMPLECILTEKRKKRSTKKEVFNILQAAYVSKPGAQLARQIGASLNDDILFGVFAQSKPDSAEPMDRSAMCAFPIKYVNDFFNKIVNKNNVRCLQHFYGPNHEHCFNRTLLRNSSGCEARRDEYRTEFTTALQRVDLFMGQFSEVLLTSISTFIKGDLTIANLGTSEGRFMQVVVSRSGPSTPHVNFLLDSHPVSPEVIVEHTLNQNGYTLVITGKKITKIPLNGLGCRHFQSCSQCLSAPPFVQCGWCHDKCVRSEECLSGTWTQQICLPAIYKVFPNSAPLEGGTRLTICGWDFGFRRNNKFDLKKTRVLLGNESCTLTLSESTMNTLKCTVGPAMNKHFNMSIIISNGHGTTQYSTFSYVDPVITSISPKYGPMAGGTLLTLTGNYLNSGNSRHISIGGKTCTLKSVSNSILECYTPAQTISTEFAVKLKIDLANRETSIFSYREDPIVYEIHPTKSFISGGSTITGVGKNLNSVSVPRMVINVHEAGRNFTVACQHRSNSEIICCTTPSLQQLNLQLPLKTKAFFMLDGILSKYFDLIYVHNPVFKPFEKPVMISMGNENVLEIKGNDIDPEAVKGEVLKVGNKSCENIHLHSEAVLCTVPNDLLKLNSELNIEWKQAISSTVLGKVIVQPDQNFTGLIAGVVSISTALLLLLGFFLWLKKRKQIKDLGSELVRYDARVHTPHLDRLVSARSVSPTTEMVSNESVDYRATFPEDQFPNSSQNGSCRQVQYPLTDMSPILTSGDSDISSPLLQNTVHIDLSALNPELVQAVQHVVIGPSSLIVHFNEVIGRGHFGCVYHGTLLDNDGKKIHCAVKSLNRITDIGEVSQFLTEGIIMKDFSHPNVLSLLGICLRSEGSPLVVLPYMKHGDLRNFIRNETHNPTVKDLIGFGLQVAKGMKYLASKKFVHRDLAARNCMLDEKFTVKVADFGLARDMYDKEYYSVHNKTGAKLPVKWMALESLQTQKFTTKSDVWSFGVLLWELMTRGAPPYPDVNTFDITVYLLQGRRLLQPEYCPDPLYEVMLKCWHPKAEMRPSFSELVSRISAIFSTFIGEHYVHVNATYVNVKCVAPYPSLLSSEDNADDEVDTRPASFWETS
T5 sequence (P08581 25-932 limits assumed, form in doubt): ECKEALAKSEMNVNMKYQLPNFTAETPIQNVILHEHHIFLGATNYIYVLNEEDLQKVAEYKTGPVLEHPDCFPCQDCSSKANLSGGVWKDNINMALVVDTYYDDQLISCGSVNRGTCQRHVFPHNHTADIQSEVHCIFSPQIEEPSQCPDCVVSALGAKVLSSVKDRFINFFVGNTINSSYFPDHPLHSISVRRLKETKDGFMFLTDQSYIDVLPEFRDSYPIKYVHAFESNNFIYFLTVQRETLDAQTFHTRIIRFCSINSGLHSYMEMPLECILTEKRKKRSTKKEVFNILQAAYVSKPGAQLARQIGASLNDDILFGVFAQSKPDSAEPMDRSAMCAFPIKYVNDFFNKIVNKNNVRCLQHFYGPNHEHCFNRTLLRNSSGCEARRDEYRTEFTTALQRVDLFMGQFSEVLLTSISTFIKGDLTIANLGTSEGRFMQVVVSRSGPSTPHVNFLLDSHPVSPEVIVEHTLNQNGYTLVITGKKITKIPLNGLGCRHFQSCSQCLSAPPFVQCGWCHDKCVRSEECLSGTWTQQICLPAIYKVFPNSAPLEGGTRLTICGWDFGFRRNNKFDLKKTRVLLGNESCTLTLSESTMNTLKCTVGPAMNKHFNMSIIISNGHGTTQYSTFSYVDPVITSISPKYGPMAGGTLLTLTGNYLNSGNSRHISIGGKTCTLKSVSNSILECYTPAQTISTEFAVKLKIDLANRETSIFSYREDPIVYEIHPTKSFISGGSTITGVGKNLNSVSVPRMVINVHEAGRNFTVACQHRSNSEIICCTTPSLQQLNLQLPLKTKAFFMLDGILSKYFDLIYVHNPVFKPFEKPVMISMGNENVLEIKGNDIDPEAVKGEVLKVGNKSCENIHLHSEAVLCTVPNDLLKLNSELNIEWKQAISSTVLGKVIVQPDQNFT
T3 sequence (P08581 25-932, change not shown): as the sequence (P08581 25-932 limits assumed, form in doubt) above

B1: chimeric llama-human IgG1 mAb 72F8 (antibody, V domains shown)
VH: ELQLVESGGGLVQPGGSLRLSCAASGFTFSNYVMSWVRQAPGKGLEWVSDTNSGGSTSYADSVKGRFTISRDNAKNTLYLQMNSLKPEDTALYYCARSFFYGMNYWGKGTQVTVSS
VL: QSALTQPPSLSASPGSSVRLTCTLSSGNNIGSYDISWYQQKAGSPPRYLLNYYTDSRKHQDSGVPSRFSGSKDASANAGLLLISGLQPEDEADYYCSAYKSGSYRWVFGGGTHVTVL
On to B1, for which, in [1], the “cell scattering score, MLP29, 0.001 nM” value stood at 0 score 0-4; the “cell scattering score, MLP29, 0.004 nM” value was 0 score 0-4; the “cell scattering score, MLP29, 0.012 nM” value amounted to 0 score 0-4; the “cell scattering score, MLP29, 0.037 nM” value was found to be 0 score 0-4. Further, in [1], the “cell scattering score, MLP29, 0.111 nM” value is 0 score 0-4; the “cell scattering score, MLP29, 0.333 nM” value worked out at 0 score 0-4; the “cell scattering score, MLP29, 1.000 nM” value is 1 score 0-4; the “cell scattering score, MLP29, 3.000 nM” value came out at 2 score 0-4. In addition, the “cell scattering score, MLP29, 9.000 nM” value in [1] worked out at 3 score 0-4. Also, in assay [2], the “cell scattering score, HPAF-II, 0.001 nM” value amounted to 0 score 0-4; the “cell scattering score, HPAF-II, 0.004 nM” value was 0 score 0-4; the “cell scattering score, HPAF-II, 0.012 nM” value turned out to be 0 score 0-4; the “cell scattering score, HPAF-II, 0.037 nM” value stood at 0 score 0-4. Also, in [2], the “cell scattering score, HPAF-II, 0.111 nM” value was found to be 0 score 0-4; the “cell scattering score, HPAF-II, 0.333 nM” value turned out to be 0 score 0-4; the “cell scattering score, HPAF-II, 1.000 nM” value stood at 1 score 0-4; the “cell scattering score, HPAF-II, 3.000 nM” value turned out to be 2 score 0-4. Besides, in assay [2], the “cell scattering score, HPAF-II, 9.000 nM” value came to 3 score 0-4. For the same molecule, in assay [3], the “protection from staurosporine, viability EC50, MLP29” value is over 32 nM and the “protection from staurosporine, viability EMAX, MLP29” value is 43.8%. Moreover, in [4], the “protection from staurosporine, viability EC50, MCF10A” value is over 32 nM and the “protection from staurosporine, viability EMAX, MCF10A” value is 35.8%. The “IMAX (maximum % competition)” value in [5] came out at 77.3%. Moreover, the “EMAX (% relative to control)” value in assay [6] is 172%. The “EMAX (% relative to control)” value in [7] was found to be 156%. In assay [8], the “IMAX (maximum % competition)” value came out at 72.8%.

B2: chimeric llama-human IgG1 mAb 74C8 (antibody, V domains shown)
VH: EVQLVESGGGLVQPGGSLRLSCAASGFTFRNYHMSWVRQVPGKGFEWISDINSAGGSTYYADSVKGRFTISRDNAKNTLYLEMNSLKPEDTALYYCARVNVWGVNYWGKGTLVSVSS
VL: QTVVTQEPSLSVSPGGTVTLTCGLSSGSVTTSNYPGWFQQTPGQAPRTLIYNTNSRHSGVPSRFSGSISGNKAALTITGAQPEDEADYYCSLYPGSYTNVFGGGTHLTVL
As for B2, in [1], the “cell scattering score, MLP29, 0.001 nM” value came to 0 score 0-4; the “cell scattering score, MLP29, 0.004 nM” value came to 0 score 0-4; the “cell scattering score, MLP29, 0.012 nM” value amounted to 0 score 0-4; the “cell scattering score, MLP29, 0.037 nM” value came to 1 score 0-4. Also, in [1], the “cell scattering score, MLP29, 0.111 nM” value was determined as 2 score 0-4; the “cell scattering score, MLP29, 0.333 nM” value was 3 score 0-4; the “cell scattering score, MLP29, 1.000 nM” value stood at 3 score 0-4; the “cell scattering score, MLP29, 3.000 nM” value came out at 4 score 0-4. Besides, the “cell scattering score, MLP29, 9.000 nM” value in assay [1] is 4 score 0-4. Further, in assay [2], the “cell scattering score, HPAF-II, 0.001 nM” value is 0 score 0-4; the “cell scattering score, HPAF-II, 0.004 nM” value is 0 score 0-4; the “cell scattering score, HPAF-II, 0.012 nM” value came out at 0 score 0-4; the “cell scattering score, HPAF-II, 0.037 nM” value was determined as 1 score 0-4. For the same molecule, in assay [2], the “cell scattering score, HPAF-II, 0.111 nM” value was found to be 2 score 0-4; the “cell scattering score, HPAF-II, 0.333 nM” value is 3 score 0-4; the “cell scattering score, HPAF-II, 1.000 nM” value was 3 score 0-4; the “cell scattering score, HPAF-II, 3.000 nM” value was found to be 4 score 0-4. In addition, in assay [2], the “cell scattering score, HPAF-II, 9.000 nM” value amounted to 4 score 0-4. In assay [3], the “protection from staurosporine, viability EC50, MLP29” value was over 32 nM and the “protection from staurosporine, viability EMAX, MLP29” value came out at 37.5%. Besides, in [4], the “protection from staurosporine, viability EC50, MCF10A” value was over 32 nM and the “protection from staurosporine, viability EMAX, MCF10A” value was 41.7%. The “IMAX (maximum % competition)” value in assay [5] was determined as 76.9%. Also, the “EMAX (% relative to control)” value in [6] is 73.8%. Further, the “EMAX (% relative to control)” value in [7] is 85.7%. In addition, the “IMAX (maximum % competition)” value in assay [8] was determined as 71.5%.

B3: Fab 76H10 (Fab, V domains shown)
VH: QLQLVESGGGLVQPGGSLRVSCTASGFTFNTYYMTWVRQAPGKGLEWVSDINSGGGTYYADSVKGRFTISRDNAKNTLYLQMNSLKPEDTALYYCVRVRIWPVGYDYWGQGTQVTVSS
VL: QAVVTQEPSLSVSPGGTVTLTCGLSSGSVTTSNYPGWFQQTPGQAPRTLIYNTNNRHSGVPSRFSGSISGNKAALTITGAQPEDEADYYCSLYTGSYTTVFGGGTHLTVL
notes: llama Fab (VH-CH1, lambda VL-CL) with MYC flag, crude periplasmic extract
With B3, the “ELISA OD450” value in [9] and in assay [10] was 3.7 AU throughout.

B4: Fab 71G3 (Fab, V domains shown)
VH: QVQLVESGGGLVQPGGSLRVSCAASGFTFSTYYMSWVRQAPGKGLEWVSDIRTDGGTYYADSVKGRFTMSRDNAKNTLYLQMNSLKPEDTALYYCARTRIFPSGYDYWGQGTQVTVSS
VL: QAVVTQEPSLSVSPGGTVTLTCGLSSGSVTTSNYPGWFQQTPGQAPRTLIYNTNSRHSGVPSRFSGSISGNKAALTIMGAQPEDEADYYCSLYPGSTTVFGGGTHLTVL
notes: as for B3
Regarding B4, the entries for the “ELISA OD450” value in assay [9] and in assay [10] were 3.46 AU and 3.44 AU, respectively.

The record behind these values is patent US20210024639A1 (AGOMAB THERAPEUTICS, published 2021).
